T1: human IL-12 (human, UniProt P29459 23-219; P29460 23-328)
T1 construct: recombinant human IL-12 heterodimer (p35/p40, disulfide-linked); also called hIL-12; rhIL-12
T1 sequence (looked up) 1: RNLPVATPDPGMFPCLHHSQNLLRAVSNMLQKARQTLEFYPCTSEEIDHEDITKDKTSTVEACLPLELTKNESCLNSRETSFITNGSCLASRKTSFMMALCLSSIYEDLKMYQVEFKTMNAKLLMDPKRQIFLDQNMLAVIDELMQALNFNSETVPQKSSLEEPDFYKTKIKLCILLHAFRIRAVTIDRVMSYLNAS
T1 sequence (looked up) 2: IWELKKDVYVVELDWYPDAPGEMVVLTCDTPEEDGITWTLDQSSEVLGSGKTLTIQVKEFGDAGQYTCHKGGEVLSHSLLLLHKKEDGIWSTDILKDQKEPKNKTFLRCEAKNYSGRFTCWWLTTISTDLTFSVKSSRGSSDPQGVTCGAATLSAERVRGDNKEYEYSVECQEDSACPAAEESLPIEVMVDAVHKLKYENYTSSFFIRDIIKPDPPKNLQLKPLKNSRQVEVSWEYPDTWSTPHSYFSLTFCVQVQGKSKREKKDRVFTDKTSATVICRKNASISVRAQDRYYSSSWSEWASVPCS

T2: recombinant human IL-12 (rhIL-12) (human, UniProt P29459 23-219; P29460 23-328)
T2 construct: disulfide-linked p35/p40 heterodimer (p70); also called IL-12 p70; rec. human IL12
T2 sequence (looked up) 1: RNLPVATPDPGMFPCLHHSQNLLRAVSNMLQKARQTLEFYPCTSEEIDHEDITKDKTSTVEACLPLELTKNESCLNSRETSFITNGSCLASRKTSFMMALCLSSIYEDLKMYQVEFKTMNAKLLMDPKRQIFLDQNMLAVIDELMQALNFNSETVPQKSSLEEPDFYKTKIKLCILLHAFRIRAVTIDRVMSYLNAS
T2 sequence (looked up) 2: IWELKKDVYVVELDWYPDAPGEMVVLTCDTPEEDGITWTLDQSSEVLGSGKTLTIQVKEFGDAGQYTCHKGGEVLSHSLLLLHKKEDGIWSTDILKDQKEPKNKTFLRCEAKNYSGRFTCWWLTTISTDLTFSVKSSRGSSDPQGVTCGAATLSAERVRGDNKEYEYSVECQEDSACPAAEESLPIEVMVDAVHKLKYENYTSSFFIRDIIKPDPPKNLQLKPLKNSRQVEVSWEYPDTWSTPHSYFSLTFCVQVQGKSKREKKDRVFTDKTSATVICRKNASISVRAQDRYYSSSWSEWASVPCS

B1: B10 (scFv, V domains shown)
VH: QVQLVQSGGGVVQPGRSLRLSCAASGFTFSSYGMHWVRQAPGKGLEWVAFIRYDGSNKYYADSVKGRFTISRDNSKNTLYLQMKSLRAEDTAVYYCKTHGSHDNWGQGTMVTVSS
VL: SYVLTQPPSVSGTPGQRVTISCSGGRSNIGSNTVKWYQQLPGTAPKLLIYGNDQRPSGVPDRFSGSKSGTSASLAITGVQAEDEADYYCQSYDRGLSDSPLFGTGTKVTVL
notes: scFv
B2: 99-G11 (scFv, V domains shown)
VH: QVQLVQSGGGVVQPGRSLRLSCAASGFTFSSYGMHWVRQAPGKGLEWVAFIRYDGSNKYYADSVKGRFTISRDNSKNTLYLQMKSLRAEDTAVYYCKTHGSHDNWGQGTMVTVSS
VL: SYVLTQPPSVSGTPGQRVTISCSGGRSNIGSNTVKWYQQLPGTAPKLLIYGNDQRPSGVPDRFSGSKSGTSASLAITGVQAEDEADYYCQSYDSRFTGSRVFGTGTKVTVL
notes: scFv clone
B3: M2 C3 (scFv, V domains shown)
VH: QVQLVQSGGGVVQPGRSLRLSCAASGFTFSSYGMHWVRQAPGKGLEWVAFIRYDGSNKYYADSVKGRFTISRDNSKNTLYLQMKSLRAEDTAVYYCKTHGSHDNWGQGTMVTVSS
VL: SYVLTQPPSVSGTPGQRVTISCSGGRSNIGSNTVKWYQQLPGTAPKLLIYGNDQRPSGVPDRFSGSKSGTSASLAITGVQAEDEADYYCQSYDTGLTGSRVFGTGTKVTVL
notes: scFv
B4: C6 (scFv, V domains shown)
VH: QVQLVQSGGGVVQPGRSLRLSCAASGFTFSSYGMHWVRQAPGKGLEWVAFIRYDGSNKYYADSVKGRFTISRDNSKNTLYLQMKSLRAEDTAVYYCKTHGSHDNWGQGTMVTVSS
VL: SYVLTQPPSVSGTPGQRVTISCSGGRSNIGSNTVKWYQQLPGTAPKLLIYGNDQRPSGVPDRFSGSKSGTSASLAITGVQAEDEADYYCQSYDRGQTPSITFGTGTKVTVL
notes: scFv
B5: M2 B4 (scFv, V domains shown)
VH: QVQLVQSGGGVVQPGRSLRLSCAASGFTFSSYGMHWVRQAPGKGLEWVAFIRYDGSNKYYADSVKGRFTISRDNSKNTLYLQMKSLRAEDTAVYYCKTHGSHDNWGQGTMVTVSS
VL: SYVLTQPPSVSGTPGQRVTISCSGGRSNIGSNTVKWYQQLPGTAPKLLIYGNDQRPSGVPDRFSGSKSGTSASLAITGVQAEDEADYYCQSYDIGLTGSRVFGTGTKVTVL
notes: scFv
B6: C8 (scFv, V domains shown)
VH: QVQLVQSGGGVVQPGRSLRLSCAASGFTFSSYGMHWVRQAPGKGLEWVAFIRYDGSNKYYADSVKGRFTISRDNSKNTLYLQMKSLRAEDTAVYYCKTHGSHDNWGQGTMVTVSS
VL: SYVLTQPPSVSGTPGQRVTISCSGGRSNIGSNTVKWYQQLPGTAPKLLIYGNDQRPSGVPDRFSGSKSGTSASLAITGVQAEDEADYYCQSYDSGTSNLLPFGTGTKVTVL
notes: scFv
B7: 99-B11 (scFv, V domains shown)
VH: QVQLVQSGGGVVQPGRSLRLSCAASGFTFSSYGMHWVRQAPGKGLEWVAFIRYDGSNKYYADSVKGRFTISRDNSKNTLYLQMKSLRAEDTAVYYCKTHGSHDNWGQGTMVTVSS
VL: SYVLTQPPSVSGTPGQRVTISCSGGRSNIGSNTVKWYQQLPGTAPKLLIYGNDQRPSGVPDRFSGSKSGTSASLAITGVQAEDEADYYCQSYDSGYTGSRVFGTGTKVTVL
notes: scFv clone
B8: C5 (scFv, V domains shown)
VH: QVQLVQSGGGVVQPGRSLRLSCAASGFTFSSYGMHWVRQAPGKGLEWVAFIRYDGSNKYYADSVKGRFTISRDNSKNTLYLQMKSLRAEDTAVYYCKTHGSHDNWGQGTMVTVSS
VL: SYVLTQPPSVSGTPGQRVTISCSGGRSNIGSNTVKWYQQLPGTAPKLLIYGNDQRPSGVPDRFSGSKSGTSASLAITGVQAEDEADYYCQSYDRGPHTQPTFGTGTKVTVL
notes: scFv
B9: 99-F11 (scFv, V domains shown)
VH: QVQLVQSGGGVVQPGRSLRLSCAASGFTFSSYGMHWVRQAPGKGLEWVAFIRYDGSNKYYADSVKGRFTISRDNSKNTLYLQMKSLRAEDTAVYYCKTHGSHDNWGQGTMVTVSS
VL: SYVLTQPPSVSGTPGQRVTISCSGGRSNIGSNTVKWYQQLPGTAPKLLIYGNDQRPSGVPDRFSGSKSGTSASLAITGVQAEDEADYYCQSYDSGFTGSRVFGTGTKVTVL
notes: scFv clone
B10: C12 (scFv, V domains shown)
VH: QVQLVQSGGGVVQPGRSLRLSCAASGFTFSSYGMHWVRQAPGKGLEWVAFIRYDGSNKYYADSVKGRFTISRDNSKNTLYLQMKSLRAEDTAVYYCKTHGSHDNWGQGTMVTVSS
VL: SYVLTQPPSVSGTPGQRVTISCSGGRSNIGSNTVKWYQQLPGTAPKLLIYGNDQRPSGVPDRFSGSKSGTSASLAITGVQAEDEADYYCQSYDRGLRVQAPFGTGTKVTVL
notes: scFv
B11: L3.3R3M-A3 (scFv, V domains shown)
VH: QVQLVQSGGGVVQPGRSLRLSCAASGFTFSSYGMHWVRQAPGKGLEWVAFIRYDGSNKYYADSVKGRFTISRDNSKNTLYLQMKSLRAEDTAVYYCKTHGSHDNWGQGTMVTVSS
VL: SYVLTQPPSVSGTPGQRVTISCSGGRSNIGSNTVKWYQQLPGTAPKLLIYGNDQRPSGVPDRFSGSKSGTSASLAITGVQAEDEADYYCQSYDRGFTGSMVFGTGTKVTVL
notes: scFv clone
B12: 99-C11 (scFv, V domains shown)
VH: QVQLVQSGGGVVQPGRSLRLSCAASGFTFSSYGMHWVRQAPGKGLEWVAFIRYDGSNKYYADSVKGRFTISRDNSKNTLYLQMKSLRAEDTAVYYCKTHGSHDNWGQGTMVTVSS
VL: SYVLTQPPSVSGTPGQRVTISCSGGRSNIGSNTVKWYQQLPGTAPKLLIYGNDQRPSGVPDRFSGSKSGTSASLAITGVQAEDEADYYCQSYDSGFTGSRVFGTGTKVTVL
notes: scFv clone
B13: C7 (scFv, V domains shown)
VH: QVQLVQSGGGVVQPGRSLRLSCAASGFTFSSYGMHWVRQAPGKGLEWVAFIRYDGSNKYYADSVKGRFTISRDNSKNTLYLQMKSLRAEDTAVYYCKTHGSHDNWGQGTMVTVSS
VL: SYVLTQPPSVSGTPGQRVTISCSGGRSNIGSNTVKWYQQLPGTAPKLLIYGNDQRPSGVPDRFSGSKSGTSASLAITGVQAEDEADYYCQSYDRGIPTSYLFGTGTKVTVL
notes: scFv
B14: 99-G7 (scFv, V domains shown)
VH: QVQLVQSGGGVVQPGRSLRLSCAASGFTFSSYGMHWVRQAPGKGLEWVAFIRYDGSNKYYADSVKGRFTISRDNSKNTLYLQMKSLRAEDTAVYYCKTHGSHDNWGQGTMVTVSS
VL: SYVLTQPPSVSGTPGQRVTISCSGGRSNIGSNTVKWYQQLPGTAPKLLIYGNDQRPSGVPDRFSGSKSGTSASLAITGVQAEDEADYYCQSYLKSRAFSRVFGTGTKVTVL
notes: scFv clone
B15: M2 A4 (scFv, V domains shown)
VH: QVQLVQSGGGVVQPGRSLRLSCAASGFTFSSYGMHWVRQAPGKGLEWVAFIRYDGSNKYYADSVKGRFTISRDNSKNTLYLQMKSLRAEDTAVYYCKTHGSHDNWGQGTMVTVSS
VL: SYVLTQPPSVSGTPGQRVTISCSGGRSNIGSNTVKWYQQLPGTAPKLLIYGNDQRPSGVPDRFSGSKSGTSASLAITGVQAEDEADYYCQSYDSGFPGSRVFGTGTKVTVL
notes: scFv
B16: B11 (scFv, V domains shown)
VH: QVQLVQSGGGVVQPGRSLRLSCAASGFTFSSYGMHWVRQAPGKGLEWVAFIRYDGSNKYYADSVKGRFTISRDNSKNTLYLQMKSLRAEDTAVYYCKTHGSHDNWGQGTMVTVSS
VL: SYVLTQPPSVSGTPGQRVTISCSGGRSNIGSNTVKWYQQLPGTAPKLLIYGNDQRPSGVPDRFSGSKSGTSASLAITGVQAEDEADYYCQSYDRGITPGLAFGTGTKVTVL
notes: scFv
B17: C9 (scFv, V domains shown)
VH: QVQLVQSGGGVVQPGRSLRLSCAASGFTFSSYGMHWVRQAPGKGLEWVAFIRYDGSNKYYADSVKGRFTISRDNSKNTLYLQMKSLRAEDTAVYYCKTHGSHDNWGQGTMVTVSS
VL: SYVLTQPPSVSGTPGQRVTISCSGGRSNIGSNTVKWYQQLPGTAPKLLIYGNDQRPSGVPDRFSGSKSGTSASLAITGVQAEDEADYYCQSYDRGPTHLPHFGTGTKVTVL
notes: scFv
B18: C3 (scFv, V domains shown)
VH: QVQLVQSGGGVVQPGRSLRLSCAASGFTFSSYGMHWVRQAPGKGLEWVAFIRYDGSNKYYADSVKGRFTISRDNSKNTLYLQMKSLRAEDTAVYYCKTHGSHDNWGQGTMVTVSS
VL: SYVLTQPPSVSGTPGQRVTISCSGGRSNIGSNTVKWYQQLPGTAPKLLIYGNDQRPSGVPDRFSGSKSGTSASLAITGVQAEDEADYYCQSYDSGVDPGPYFGTGTKVTVL
notes: scFv
B19: 99-E9 (scFv, V domains shown)
VH: QVQLVQSGGGVVQPGRSLRLSCAASGFTFSSYGMHWVRQAPGKGLEWVAFIRYDGSNKYYADSVKGRFTISRDNSKNTLYLQMKSLRAEDTAVYYCKTHGSHDNWGQGTMVTVSS
VL: SYVLTQPPSVSGTPGQRVTISCSGGRSNIGSNTVKWYQQLPGTAPKLLIYGNDQRPSGVPDRFSGSKSGTSASLAITGVQAEDEADYYCQSYDSGFTGSRVFGTGTKVTVL
notes: scFv clone

Experiments:
human IL-12 = target: T1, human IL-12; test: SPR (BIAcore), IL-12 chip
Description: The system utilizes the optical properties of SPR to detect alterations in protein concentrations within a dextran biosensor matrix. Proteins are covalently bound to the dextran matrix at known concentrations. […] To determine the off rate (koff), on rate (kₒₙ), association rate (Ka) and dissociation rate (Kd) constants, BIAcore kinetic evaluation software (version 2.1) was used.

[1] = target: T2, recombinant human IL-12 (rhIL-12); test: BIAcore SPR, IL-12 on chip

Row | Binder | koff (human IL-12) [s⁻¹] | koff [1] [s⁻¹]
1 | B1 | 0.00604 | 
2 | B2 |  | 0.0043
3 | B3 | 0.0462 | 
4 | B4 | 0.00242 | 
5 | B5 | 0.0442 | 
6 | B6 | 0.00536 | 
7 | B7 |  | 0.0054
8 | B8 | 0.00391 | 
9 | B9 |  | 0.0054
10 | B10 | 0.00585 | 
11 | B11 |  | 5.37
12 | B12 |  | 0.0057
13 | B13 | 0.00583 | 
14 | B14 |  | 0.0048
15 | B15 | 0.00849 | 
16 | B16 | 0.00295 | 
17 | B17 | 0.00397 | 
18 | B18 | 0.00334 | 
19 | B19 |  | 0.0054
